Data published in publication PMC5856381.

Biological target: recombinant haptoglobin Hp1S, C1r-LP processed (rHp 1–1) (human) (UniProt P00738)
Assay: non-reducing SDS-PAGE; Coomassie-stained gel of non-reduced protein samples; disulfide-linked dimers and multimers

stoichiometry N: 2
Substance: recombinant haptoglobin Hp1S, C1r-LP processed (rHp 1–1) (from UniProt P00738-2 19-101) (natural protein)
